Laboratory results as given in article PMC6066450.

Target: Neurabin (Nrb), endogenous in rat cortical neurons (rat (endogenous in primary cortical neurons)) (UniProt O35867)
Assay: co-IP

Chain of UniProt O35867 (O35867 whole entry): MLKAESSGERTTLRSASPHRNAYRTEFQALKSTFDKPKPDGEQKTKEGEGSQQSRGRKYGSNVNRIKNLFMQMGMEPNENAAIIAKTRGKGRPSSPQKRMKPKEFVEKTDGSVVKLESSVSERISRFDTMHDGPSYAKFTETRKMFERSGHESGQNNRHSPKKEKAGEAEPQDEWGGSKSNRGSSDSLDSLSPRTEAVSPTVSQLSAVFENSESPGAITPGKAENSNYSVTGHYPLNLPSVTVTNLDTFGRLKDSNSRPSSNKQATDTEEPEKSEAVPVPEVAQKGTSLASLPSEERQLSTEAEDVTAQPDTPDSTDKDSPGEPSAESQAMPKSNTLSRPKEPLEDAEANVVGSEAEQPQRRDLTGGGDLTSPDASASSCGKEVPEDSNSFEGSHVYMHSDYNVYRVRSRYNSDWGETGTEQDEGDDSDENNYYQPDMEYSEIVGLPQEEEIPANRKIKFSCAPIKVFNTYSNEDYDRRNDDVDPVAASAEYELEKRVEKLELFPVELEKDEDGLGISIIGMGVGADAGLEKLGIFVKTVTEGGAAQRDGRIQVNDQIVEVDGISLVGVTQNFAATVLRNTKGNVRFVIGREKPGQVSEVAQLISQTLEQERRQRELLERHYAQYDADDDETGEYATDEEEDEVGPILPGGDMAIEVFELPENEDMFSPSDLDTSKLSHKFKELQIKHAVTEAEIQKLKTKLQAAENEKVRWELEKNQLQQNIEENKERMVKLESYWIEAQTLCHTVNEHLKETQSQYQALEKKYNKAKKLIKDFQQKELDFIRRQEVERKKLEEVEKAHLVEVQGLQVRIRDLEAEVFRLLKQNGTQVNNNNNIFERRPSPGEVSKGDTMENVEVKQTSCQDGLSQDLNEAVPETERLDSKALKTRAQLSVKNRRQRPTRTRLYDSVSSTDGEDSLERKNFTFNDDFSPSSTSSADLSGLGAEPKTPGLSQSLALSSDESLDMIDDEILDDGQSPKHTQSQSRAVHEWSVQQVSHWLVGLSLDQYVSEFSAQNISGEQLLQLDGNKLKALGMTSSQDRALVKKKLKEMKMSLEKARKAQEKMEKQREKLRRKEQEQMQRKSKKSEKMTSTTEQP

PP1 co-IPed with Nrb after forskolin, percent of no forskolin control: 62.8%
Substance: Protein phosphatase-1 (PP1), endogenous in rat cortical neurons (from UniProt P62138 1-330) (enzyme)
